Test results: patent US20240376151A1, “STAPLED PEPTIDES AND METHODS THEREOF” (FOG PHARMACEUTICALS, INC., priority 2022, published 2024)

Legend:
beta-catenin = target: T1, beta-catenin (Homo sapiens, UniProt P35222); experiment: Phage Library Screening with NGS, beta-catenin; format: binding; details: for Target Concentration 10 (phage screen NGS readout): beta-catenin target concentration 10; for Target Concentration 10 (phage screen NGS readout) / Target Concentration 30 (phage screen NGS readout) / Target Concentration 100 (phage screen NGS readout) / Target Concentration 300 (phage screen NGS readout): no competitor; for Target Concentration 30 (phage screen NGS readout): beta-catenin target concentration 30; for Target Concentration 100 (phage screen NGS readout): beta-catenin target concentration 100; for Target Concentration 300 (phage screen NGS readout): beta-catenin target concentration 300; for Target Concentration 1000 (phage screen NGS readout): beta-catenin target concentration 1000
T1 construct: made in house; host or cells: E. coli BL21 (DE3) pLysS
T1 sequence (P35222 134-665): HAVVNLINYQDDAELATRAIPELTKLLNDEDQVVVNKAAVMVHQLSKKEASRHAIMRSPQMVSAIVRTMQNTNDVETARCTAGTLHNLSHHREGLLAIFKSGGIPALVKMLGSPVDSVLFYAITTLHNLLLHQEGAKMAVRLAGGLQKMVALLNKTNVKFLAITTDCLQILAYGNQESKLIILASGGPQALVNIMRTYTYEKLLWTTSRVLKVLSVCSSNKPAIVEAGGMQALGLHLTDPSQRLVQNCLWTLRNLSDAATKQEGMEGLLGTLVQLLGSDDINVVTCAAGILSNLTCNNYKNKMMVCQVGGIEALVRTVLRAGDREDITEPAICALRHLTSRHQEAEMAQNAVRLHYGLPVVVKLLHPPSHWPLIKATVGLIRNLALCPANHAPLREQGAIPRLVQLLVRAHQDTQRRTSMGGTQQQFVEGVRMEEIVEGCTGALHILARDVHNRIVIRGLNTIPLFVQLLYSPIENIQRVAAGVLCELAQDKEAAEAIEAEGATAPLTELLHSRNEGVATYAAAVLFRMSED

RNF31 PUB domain = target: T2, RNF31 PUB domain (Homo sapiens, UniProt Q96EP0); experiment: Phage Library Screening with NGS, RNF31 PUB domain; format: binding; details: for Phage library screen NGS readout, Target Concentration 10 / Phage library screen NGS readout, Target Concentration 30 / Phage library screen NGS readout, Target Concentration 100 / Phage library screen NGS readout, Target Concentration 300 / Phage library screen NGS readout, Target Concentration 1000: RNF31 PUB domain clusters C41-C45; for Phage library screen NGS readout, BLANK: clusters C41-C45
T2 construct: MBP-TEV (N, cleaved yes); made in house; host or cells: E. coli BL21 (DE3) pLysS
T2 sequence (Q96EP0 1-179): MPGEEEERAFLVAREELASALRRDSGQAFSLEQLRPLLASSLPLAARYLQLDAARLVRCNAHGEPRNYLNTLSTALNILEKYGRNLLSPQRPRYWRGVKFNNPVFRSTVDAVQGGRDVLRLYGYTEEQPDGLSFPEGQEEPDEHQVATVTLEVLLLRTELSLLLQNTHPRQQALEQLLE

[1] = target concentration 1000, first column
[2] = target concentration 1000, second column

Compound	Target Concentration BLANK (phage screen NGS readout) (beta-catenin; first column)	Target Concentration BLANK (phage screen NGS readout) (beta-catenin; fourth column)	Target Concentration BLANK (phage screen NGS readout) (beta-catenin; second column)	Target Concentration BLANK (phage screen NGS readout) (beta-catenin; third column)	Target Concentration 10 (phage screen NGS readout) (beta-catenin)	Target Concentration 30 (phage screen NGS readout) (beta-catenin)	Target Concentration 100 (phage screen NGS readout) (beta-catenin)	Target Concentration 300 (phage screen NGS readout) (beta-catenin)	Target Concentration 1000 (phage screen NGS readout) (beta-catenin; first 1000 column)	Phage library screen NGS readout, Target Concentration 10 (RNF31 PUB domain)	Phage library screen NGS readout, Target Concentration 30 (RNF31 PUB domain)	Phage library screen NGS readout, Target Concentration 100 (RNF31 PUB domain)	Phage library screen NGS readout, Target Concentration 300 (RNF31 PUB domain)	Phage library screen NGS readout, Target Concentration 1000 (RNF31 PUB domain; [1])	Phage library screen NGS readout, Target Concentration 1000 (RNF31 PUB domain; [2])	Phage library screen NGS readout, BLANK (RNF31 PUB domain; column 1 of 5)	Phage library screen NGS readout, BLANK (RNF31 PUB domain; column 2 of 5)	Phage library screen NGS readout, BLANK (RNF31 PUB domain; column 3 of 5)	Phage library screen NGS readout, BLANK (RNF31 PUB domain; column 4 of 5)	Phage library screen NGS readout, BLANK (RNF31 PUB domain; column 5 of 5)	further results
CC(=O)N[C@@H](CC(=O)O)C(=O)N1CCC[C@H]1C(=O)N[C@@H](C)C(=O)N[C@@H](CC(C)C)C(=O)N[C@@H](Cc1c[nH]c2ccccc12)C(=O)N[C@@H](CCC(N)=O)C(=O)N[C@@H](CS)C(=O)N[C@@H](CCC(=O)O)C(=O)N[C@@H](Cc1c[nH]cn1)C(=O)N[C@@H](C)C(=O)N[C@@H](C)C(=O)N[C@@H](CC(C)C)C(=O)N[C@@H](CC(C)C)C(=O)N[C@@H](CS)C(=O)N[C@@H](CC(=O)O)C(=O)N[C@H](C(=O)N[C@@H](Cc1c[nH]cn1)C(N)=O)C(C)C	0	0	2	1	13	27	122	158	246	–	–	–	–	–	–	–	–	–	–	–	Target Concentration 1000 (phage screen NGS readout) (beta-catenin; second 1000 column): 246
CC[C@H](C)[C@H](NC(=O)[C@H](C)NC(=O)[C@H](C)NC(=O)[C@H](Cc1c[nH]c2ccccc12)NC(=O)[C@H](CCC(=O)O)NC(=O)[C@H](CS)NC(=O)[C@H](CC(C)C)NC(=O)[C@H](CCC(=O)O)NC(=O)[C@H](CO)NC(=O)[C@H](C)NC(=O)[C@@H]1CCCN1C(=O)[C@H](CC(=O)O)NC(C)=O)C(=O)N[C@@H](Cc1c[nH]cn1)C(=O)N[C@@H](CS)C(=O)N[C@@H](CC(=O)O)C(=O)N[C@@H](CC(C)C)C(=O)N[C@H](C(N)=O)C(C)C	1	1	2	3	19	41	163	495	605	–	–	–	–	–	–	–	–	–	–	–	Target Concentration 1000 (phage screen NGS readout) (beta-catenin; second 1000 column): 424
DPAADDCVLAAHVCAYF	7	0	1	0	8	46	144	397	407	–	–	–	–	–	–	–	–	–	–	–	Target Concentration 1000 (phage screen NGS readout) (beta-catenin; second 1000 column): 343
DPAALSCYQAAFHCQYY	0	0	0	0	0	0	1	5	14	–	–	–	–	–	–	–	–	–	–	–	Target Concentration 1000 (phage screen NGS readout) (beta-catenin; second 1000 column): 17
DPAAQRCTWAAIHCELI	0	0	0	2	0	0	7	39	25	–	–	–	–	–	–	–	–	–	–	–	Target Concentration 1000 (phage screen NGS readout) (beta-catenin; second 1000 column): 93
DPADDFCMWAAEHCELL	0	0	0	1	10	12	81	226	273	–	–	–	–	–	–	–	–	–	–	–	Target Concentration 1000 (phage screen NGS readout) (beta-catenin; second 1000 column): 227
DPAYSSCSWAAIYCNWT	–	–	–	–	–	–	–	–	–	1	1	5	2	7	4	1	1	4	2	1	–
DPAYTLCSWAAMYCDSM	–	–	–	–	–	–	–	–	–	0	1	0	0	5	6	0	1	1	4	2	–
DPAYWDCLYAAADCAFY	–	–	–	–	–	–	–	–	–	0	0	0	4	8	5	2	0	0	0	0	–
DPAYWDCLYAAWSCDIL	–	–	–	–	–	–	–	–	–	0	1	0	4	9	7	1	1	1	0	0	–
DPAYWDCMYAAFYCDDI	–	–	–	–	–	–	–	–	–	0	0	0	3	3	8	0	0	0	0	2	–
DPAYWHCLYAAASCDDI	–	–	–	–	–	–	–	–	–	0	0	0	2	8	4	0	3	0	0	2	–
DPAYWQCIYAAWDCDQM	–	–	–	–	–	–	–	–	–	0	0	1	4	13	6	1	2	2	1	0	–
DPAYYTCDWAAIYCDYH	–	–	–	–	–	–	–	–	–	0	0	0	1	6	6	0	1	0	0	0	–
